# In IntAct's records for PubMed 12351681:
# B1: Protein Tube (Drosophila melanogaster (Fruit fly)), P22812 (parent)
# chain: MAYGWNGCGMGVQVNGSNGAIGLSSKYSRNTELRRVEDNDIYRLAKILDENSCWRKLMSIIPKGMDVQACSGAGCLNFPAEIKKGFKYTAQDVFQIDEAANRLPPDQSKSQMMIDEWKTSGKLNERPTVGVLLQLLVQAELFSAADFVALDFLNESTPARPVDGPGALISLELLEEEMEVDNEGLSLKYQSSTATLGADAQGSVGLNLDNFEKDIVRRDKSVPQPSGNTPPIAPPRRQQRSTTNSNFATLTGTGTTSTTIPNVPNLTILNPSEQIQEPVLQPRPMNIPDLSILISNSGDLRATVSDNPSNRTSSTDPPNIPRITLLIDNSGDVNSRPNHAPAKASTATTSTASSNNLPMISALNISKGSRETLRPESRSSSSSLSKDDDDDNDGEEDGEEEYPDAFLPNLSNSEQQSSNNDSSLTTVTGTSGDNSFELTNDSSSTSNDDYACNIPDLSELQQ
# partner: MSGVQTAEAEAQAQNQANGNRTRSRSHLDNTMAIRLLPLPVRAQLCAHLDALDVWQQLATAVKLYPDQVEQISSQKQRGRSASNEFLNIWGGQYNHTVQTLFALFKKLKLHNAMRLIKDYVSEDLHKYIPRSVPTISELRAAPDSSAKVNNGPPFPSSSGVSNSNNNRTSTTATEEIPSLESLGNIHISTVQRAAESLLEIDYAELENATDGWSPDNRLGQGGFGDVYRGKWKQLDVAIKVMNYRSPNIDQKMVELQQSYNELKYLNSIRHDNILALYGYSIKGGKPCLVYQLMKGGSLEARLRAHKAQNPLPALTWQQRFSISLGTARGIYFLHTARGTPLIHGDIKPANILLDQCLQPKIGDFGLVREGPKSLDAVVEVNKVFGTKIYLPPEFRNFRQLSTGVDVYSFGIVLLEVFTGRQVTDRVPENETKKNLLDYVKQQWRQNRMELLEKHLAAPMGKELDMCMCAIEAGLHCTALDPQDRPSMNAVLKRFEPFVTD
# Variants of: B1
# Conditions: with kpel_drome pll
row,effect of a mutation on the interaction,Variant
1,decreasing interaction,MAYGWNGCGMGVQVNGSNGAIGLSSKYSRNTELRRVEDNDIYRLAKILDKNSCWRKLMSIIPKGMDVQACSGAGCLNFPAEIKKGFKYTAQDVFQIDEAANRLPPDQSKSQMMIDEWKTSGKLNERPTVGVLLQLLVQAELFSAADFVALDFLNESTPARPVDGPGALISLELLEEEMEVDNEGLSLKYQSSTATLGADAQGSVGLNLDNFEKDIVRRDKSVPQPSGNTPPIAPPRRQQRSTTNSNFATLTGTGTTSTTIPNVPNLTILNPSEQIQEPVLQPRPMNIPDLSILISNSGDLRATVSDNPSNRTSSTDPPNIPRITLLIDNSGDVNSRPNHAPAKASTATTSTASSNNLPMISALNISKGSRETLRPESRSSSSSLSKDDDDDNDGEEDGEEEYPDAFLPNLSNSEQQSSNNDSSLTTVTGTSGDNSFELTNDSSSTSNDDYACNIPDLSELQQ [E50K]
